According to patent publication US9296786B2, “Shortened secreted polypeptides” (TWO TO BIOTECH LTD., priority 2009, dated 2016):

Assays:
[1] = Effect of PRT6 administration on blood serum testosterone level (R&D Systems Testosterone Immunoassay); type: in vivo, Balb/C mice
Description: Two groups of Balb/C mice were used: • 3-4 week-old male Balb/C—Negative control for testosterone—18 mice • 7-8 week-old male Balb/C mice—18 mice
Each group was divided into 3 sub-groups (6 mice each). Each group was injected every day for a 4 day-period with 200 μl of one of the following: • 4% DMSO in double-distilled water (DDW) • 0.5 μg/kg of PRT6 (diluted in DDW) • 5 μg/kg of PRT6 (diluted in DDW)
After 4 days, blood serum was extracted from the mice and tested for testosterone levels. Testosterone measurement was done using the R&D Systems Testosterone Immunoassay (R&D Systems Catalog Number KGE010). This assay is based on the competitive binding technique. A monoclonal antibody specific for testosterone binds to the goat anti-mouse antibody coated onto the microplate. Following a wash to remove excess monoclonal antibody, testosterone present in the sample competes with a fixed amount of horseradish peroxidase (HRP)-labeled testosterone for sites on the monoclonal antibody. This is followed by another wash to remove excess conjugate and unbound sample. A substrate solution is added to the wells to determine the bound enzyme activity. Color development is stopped, and absorbance is read at 450 nm. The intensity of the color is inversely proportional to the concentration of testosterone in the sample.

[2] = IPGTT in mice treated with streptozotocyn (STZ), after 4-5 weeks of peptide treatment; type: in vivo, C57B1/6 mice; conditions: STZ-treated C57B1/6 male mice; PRT8 100 μg/mice; sbPRT8 20, 100 or 300 μg/mice; 4 or 5 weeks of treatment; sbPRT8 compared with PRT8
Excerpt: In the following experiments, a sbPRT8 peptide blocked with an acetyl moiety at the N-terminal end and an amide moiety (NH2) at the C-terminal end has been employed. The effect of sbPRT8 administration on glucose levels was examined and compared to the effect obtained with PRT8 in mice treated with streptozocin (STZ). As known in the art, STZ is a chemical compound that is particularly toxic to the insulin-producing beta cells of the pancreas in mammals. It is used in medicine for treating certain cancers of the Islets of Langerhans and used in medical research to produce an animal model for Type 1 diabetes as well as Type 2 diabetes.
(§1) C57B1/6 males mice were purchased from Harlan Laboratories Ltd., Jerusalem, Israel, After 7 days of rest, mice were IP injected with 50 mg/kg STZ for 4 days. Five days after STZ injection, mice were treated as follows: • Group A (control)—100 μg/mice of PRT8 (control) • Group B (treatment)—20 μg/mice of sbPRT8 (treatment 1) • Group C (control)—100 μg/mice of sbPRT8 (treatment 2)
After 5 weeks of treatment mice were starved for food only for 12 h and then were IP injected with […] of glucose solution (IPGTT). The level of glucose in mice blood was measured with Accucheck glucometer (Roche) at t=0, 15, 30, 60, 90 and 120 minutes following glucose injection.
as §1, with “Jerusalem, Israel.” for “Jerusalem, Israel,”, “B (treatment)—100” for “B (treatment)—20”, “C (control)—300” for “C (control)—100”
After 4 weeks of treatment mice were starved for food only for 12 h and then were IP injected with […] of glucose solution (IPGTT). The level of glucose in mice blood was measured with Accucheck glucometer (Roche) at t=0, 15, 30, 60, 90 and 120 minutes following glucose injection.

insulin receptors = assay: Levels of insulin receptors in skeletal muscle of mice treated with PRT5; type: in vivo; conditions: data not shown
[3] = Effect of PRT5 administration on glucose levels after glucose injection in starved mice; type: in vivo, C57B1 mice; conditions: starting 2 days and up to 4 days after injection; 2 mg/kg glucose after overnight starvation
Description: The mice were divided into 4 groups. The first group was starved and checked for blood glucose levels (using an Accu-Chek® Performa device, Roche Diagnostics) one day after injection; the second group—two days after injection, the third group—three days after injection and the fourth group—four days after injection. Starvation was done overnight (the night before glucose injection), and the next day 2 mg/kg of glucose was injected to each mouse. A time course analysis of glucose levels was performed with glucose levels checked at t=0, 30, 90, 120, 150 and 240 minutes.

p53 = assay: Induction of p53 expression by PRT7 (data not shown)
[4] = Effect of PRT8 administration on glucose levels after glucose injection in starved mice; type: in vivo, C57B1 mice; conditions: 1 μg/kg or 10 μg/kg PRT8
Description: All the mice were injected with PRT8 (or saline) on day 1. The first group was starved on day 2 and checked for blood glucose levels (using an Accu-Chek®Performa device, Roche Diagnostics) on day three. The second group was starved and checked for blood glucose levels three days after injection. Starvation was done overnight (the night before glucose injection), and the next day 2 mg/kg of glucose was injected to each mouse. A time course analysis of glucose levels was performed with glucose levels checked at t=0, 30, 60 and 120 minutes following glucose injection.

In the case of “PRT6: novel chemokine-like secreted polypeptide from human cDNA libraries, amino acid sequence SEQ. ID. NO. 2 (MPPFSVGLVVVVNVVCLMLYESTTILRLYGIILFMRDLKLEVEDAKITIALALRNS; listed as Homo sapiens)”, the “testosterone levels in blood serum” value ([1]; 0.5 μg/kg or 5 μg/kg PRT6 daily for 4 days, male Balb/C) is reported as “significant increase” and the “effect on testosterone levels of 5 μg/kg compared with 0.5 μg/kg” value ([1]; 5 μg/kg vs 0.5 μg/kg PRT6, daily for 4 days) is reported as “much more pronounced”.

For “PRT8 C-ter: PRT8 fragment, sequence LLVSLYPA (listed as Homo sapiens)”, the “reduction of blood glucose level (IPGTT)” value [2] was “no significant blood glucose reduction”.

With “PRT8 N-ter: PRT8 fragment, sequence SHLFGSFAWN FLLSS (SHLFGSFAWNFLLSS; listed as Homo sapiens)” the “reduction of blood glucose level (IPGTT)” value [2] was “no significant blood glucose reduction”.

For “sbPRT8: shortened C-terminal fragment of PRT8, sequence KPETCPGLLV SLYPA (KPETCPGLLVSLYPA; listed as Homo sapiens)”, the “reduction of blood glucose level (IPGTT)” value [2] was “very significant improvement”.

B1: PRT5: novel chemokine-like secreted polypeptide from human cDNA libraries, amino acid sequence SEQ. ID. NO. 1 (protein, listed as Homo sapiens)
chain: MKPMERWWSRALFTTCPVGPSGCAAGLLWPRNTDARSPLHSQTLWVCSWAALAQKHRCTVTPAQPAP
With B1 the “levels of insulin receptors in skeletal muscle” value (insulin receptors) was “capable of increasing the levels of insulin receptors” and the “glucose levels compared with mice administered saline” value [3] was “significantly lower”.

B2: PRT7: novel chemokine-like secreted polypeptide from human cDNA libraries, amino acid sequence SEQ. ID. NO. 3 (protein, listed as Homo sapiens)
chain: MGMIVPPSLAAAGGASTTPRLHALRLTSLLHQHLDLCLHPSPLPTPPSAPCLSGLVPPDSSLSVLDTLQV
With B2 the “expression of p53” value (p53) was “can induce the expression of p53”.

B3: PRT8: novel chemokine-like secreted polypeptide from human cDNA libraries, amino acid sequence SEQ. ID. NO. 4; full length PRT8 peptide (protein, listed as Homo sapiens)
chain: MLVFLKLWPQCLFFALTFFLRNCIYFKDFLSHLFGSFAWNFLLSSRSMDPTSCWTAPIWRSHRPLNSAPVSESPNYPLFTWSLKPETCPGLLVSLYPA
For B3, the “reduction of blood glucose level (IPGTT)” value [2] was “significant reduction”, the “glucose levels compared with mice administered saline” value ([4]; starting 2 days after administration, 2 mg/kg glucose after overnight starvation) was “significantly lower” and the “glucose-lowering effect three days following injection compared with two days” value ([4]; three days following PRT8 injection) was “more evident”.
